According to patent US20140206607A1 (INDIANA UNIVERSITY RESEARCH AND TECHNOLOGY, published 2014):
Numbered stars: 1 amine (or outer) side, 2 acyl side, 3 side chain; on linkers, the order of the positions; unused ones are H or OH. Square brackets hold non-standard residues; d marks the D form. Side chains are listed from the residue outwards. Ends that are not written are not given here. * marks the point of attachment. 40K‑TE PEG = 40 kDa PEG covalently bound via thioether, formed by reaction of the free thiol of the peptide (Cys side chain) with an iodoacetic-functionalized PEG; γGlu = O=C(O)[C@H](CCC(=O)[*:2])N[*:1]; Palmitoyl = CCCCCCCCCCCCCCCC(=O)*; Aib = CC(C)(N)C(=O)O

Legend:
Test in all cases: cell-based or functional assay
[1] = target: GLP-1 receptor (UniProt P43220 24-463, limits assumed)
[2] = target: T1, GIP receptor (UniProt P48546 22-466)
T1 sequence (looked up): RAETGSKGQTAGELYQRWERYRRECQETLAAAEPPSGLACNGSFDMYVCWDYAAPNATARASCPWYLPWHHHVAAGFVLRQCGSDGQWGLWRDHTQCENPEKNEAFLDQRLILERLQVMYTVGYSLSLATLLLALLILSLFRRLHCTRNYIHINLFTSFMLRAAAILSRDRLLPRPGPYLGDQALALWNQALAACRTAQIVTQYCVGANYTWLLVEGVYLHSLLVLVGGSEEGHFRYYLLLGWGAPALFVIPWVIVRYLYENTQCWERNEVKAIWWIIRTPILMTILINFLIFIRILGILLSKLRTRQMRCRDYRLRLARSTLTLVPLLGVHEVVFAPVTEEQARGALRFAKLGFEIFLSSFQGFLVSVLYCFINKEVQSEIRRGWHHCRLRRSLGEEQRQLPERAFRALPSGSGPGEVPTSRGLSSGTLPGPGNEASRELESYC

[3] = target: glucagon receptor (UniProt P47871 26-477, limits assumed)
Chain of glucagon receptor (P47871 26-477 limits assumed): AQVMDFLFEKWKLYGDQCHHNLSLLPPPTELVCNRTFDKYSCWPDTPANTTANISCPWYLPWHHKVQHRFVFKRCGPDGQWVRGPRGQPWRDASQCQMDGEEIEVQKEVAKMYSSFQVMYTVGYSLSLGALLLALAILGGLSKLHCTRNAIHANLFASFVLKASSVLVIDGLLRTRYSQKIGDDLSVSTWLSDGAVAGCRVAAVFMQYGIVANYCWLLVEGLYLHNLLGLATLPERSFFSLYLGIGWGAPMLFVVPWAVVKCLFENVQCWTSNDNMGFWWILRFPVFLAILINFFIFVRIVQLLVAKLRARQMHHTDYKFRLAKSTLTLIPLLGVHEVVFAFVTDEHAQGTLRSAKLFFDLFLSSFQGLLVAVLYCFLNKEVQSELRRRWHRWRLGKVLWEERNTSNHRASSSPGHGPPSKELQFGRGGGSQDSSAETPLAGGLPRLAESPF

Row | Binder | EC50 (nM) at GLP-1 receptor [1] [nM] | EC50 (nM) at GIP receptor [2] [nM] | EC50 (nM) at glucagon receptor [3] [nM]
1 | H[dS]QGTFTSDK([γGlu-Palmitoyl])SKYLDERAAQDFVQWLLKGRG-NH2 (N-terminus assumed; SMILES CCCCCCCCCCCCCCCC(=O)N[C@@H](CCC(=O)NCCCC[C@H](NC(=O)[C@H](CC(=O)O)NC(=O)[C@H](CO)NC(=O)[C@@H](NC(=O)[C@H](Cc1ccccc1)NC(=O)[C@@H](NC(=O)CNC(=O)[C@H](CCC(N)=O)NC(=O)[C@@H](CO)NC(=O)[C@@H](N)Cc1c[nH]cn1)[C@@H](C)O)[C@@H](C)O)C(=O)N[C@@H](CO)C(=O)N[C@@H](CCCCN)C(=O)N[C@@H](Cc1ccc(O)cc1)C(=O)N[C@@H](CC(C)C)C(=O)N[C@@H](CC(=O)O)C(=O)N[C@@H](CCC(=O)O)C(=O)N[C@@H](CCCNC(=N)N)C(=O)N[C@@H](C)C(=O)N[C@@H](C)C(=O)N[C@@H](CCC(N)=O)C(=O)N[C@@H](CC(=O)O)C(=O)N[C@@H](Cc1ccccc1)C(=O)N[C@H](C(=O)N[C@@H](CCC(N)=O)C(=O)N[C@@H](Cc1c[nH]c2ccccc12)C(=O)N[C@@H](CC(C)C)C(=O)N[C@@H](CC(C)C)C(=O)N[C@@H](CCCCN)C(=O)NCC(=O)N[C@@H](CCCNC(=N)N)C(=O)NCC(N)=O)C(C)C)C(=O)O) [peptide of SEQ ID NO: 27] | 0.005 | 2.12 | 0.022
2 | H[Aib]QGTFTSDYSKYLDERRA[Aib]EFVC(40K‑TE PEG)WLLDT-NH2 [peptide of SEQ ID NO: 14] | 0.076 | 33.7 | 0.365
3 | H[Aib]QGTFTSDK([γGlu-γGlu-Palmitoyl])SKYLD[Aib]RAAQDFVQWLKDGRG-NH2 (N-terminus assumed; SMILES CCCCCCCCCCCCCCCC(=O)N[C@@H](CCC(=O)N[C@@H](CCC(=O)NCCCC[C@H](NC(=O)[C@H](CC(=O)O)NC(=O)[C@H](CO)NC(=O)[C@@H](NC(=O)[C@H](Cc1ccccc1)NC(=O)[C@@H](NC(=O)CNC(=O)[C@H](CCC(N)=O)NC(=O)C(C)(C)NC(=O)[C@@H](N)Cc1c[nH]cn1)[C@@H](C)O)[C@@H](C)O)C(=O)N[C@@H](CO)C(=O)N[C@@H](CCCCN)C(=O)N[C@@H](Cc1ccc(O)cc1)C(=O)N[C@@H](CC(C)C)C(=O)N[C@@H](CC(=O)O)C(=O)NC(C)(C)C(=O)N[C@@H](CCCNC(=N)N)C(=O)N[C@@H](C)C(=O)N[C@@H](C)C(=O)N[C@@H](CCC(N)=O)C(=O)N[C@@H](CC(=O)O)C(=O)N[C@@H](Cc1ccccc1)C(=O)N[C@H](C(=O)N[C@@H](CCC(N)=O)C(=O)N[C@@H](Cc1c[nH]c2ccccc12)C(=O)N[C@@H](CC(C)C)C(=O)N[C@@H](CCCCN)C(=O)N[C@@H](CC(=O)O)C(=O)NCC(=O)N[C@@H](CCCNC(=N)N)C(=O)NCC(N)=O)C(C)C)C(=O)O)C(=O)O) [peptide of SEQ ID NO: 24] | 0.004 | 1.46 | 0.021
4 | H[Aib]QGTFTSDK([γGlu-γGlu-Palmitoyl])SKYLD[Aib]RAAQDFVQWLKDGRP-NH2 (N-terminus assumed; SMILES CCCCCCCCCCCCCCCC(=O)N[C@@H](CCC(=O)N[C@@H](CCC(=O)NCCCC[C@H](NC(=O)[C@H](CC(=O)O)NC(=O)[C@H](CO)NC(=O)[C@@H](NC(=O)[C@H](Cc1ccccc1)NC(=O)[C@@H](NC(=O)CNC(=O)[C@H](CCC(N)=O)NC(=O)C(C)(C)NC(=O)[C@@H](N)Cc1c[nH]cn1)[C@@H](C)O)[C@@H](C)O)C(=O)N[C@@H](CO)C(=O)N[C@@H](CCCCN)C(=O)N[C@@H](Cc1ccc(O)cc1)C(=O)N[C@@H](CC(C)C)C(=O)N[C@@H](CC(=O)O)C(=O)NC(C)(C)C(=O)N[C@@H](CCCNC(=N)N)C(=O)N[C@@H](C)C(=O)N[C@@H](C)C(=O)N[C@@H](CCC(N)=O)C(=O)N[C@@H](CC(=O)O)C(=O)N[C@@H](Cc1ccccc1)C(=O)N[C@H](C(=O)N[C@@H](CCC(N)=O)C(=O)N[C@@H](Cc1c[nH]c2ccccc12)C(=O)N[C@@H](CC(C)C)C(=O)N[C@@H](CCCCN)C(=O)N[C@@H](CC(=O)O)C(=O)NCC(=O)N[C@@H](CCCNC(=N)N)C(=O)N1CCC[C@H]1C(N)=O)C(C)C)C(=O)O)C(=O)O) [peptide of SEQ ID NO: 25] | 0.003 | 2.36 | 0.035
5 | H[Aib]QGTFTSDK([γGlu-γGlu-Palmitoyl])SKYLD[Aib]RAAQDFVQWLL[Aib]GRG-NH2 (N-terminus assumed; SMILES CCCCCCCCCCCCCCCC(=O)N[C@@H](CCC(=O)N[C@@H](CCC(=O)NCCCC[C@H](NC(=O)[C@H](CC(=O)O)NC(=O)[C@H](CO)NC(=O)[C@@H](NC(=O)[C@H](Cc1ccccc1)NC(=O)[C@@H](NC(=O)CNC(=O)[C@H](CCC(N)=O)NC(=O)C(C)(C)NC(=O)[C@@H](N)Cc1c[nH]cn1)[C@@H](C)O)[C@@H](C)O)C(=O)N[C@@H](CO)C(=O)N[C@@H](CCCCN)C(=O)N[C@@H](Cc1ccc(O)cc1)C(=O)N[C@@H](CC(C)C)C(=O)N[C@@H](CC(=O)O)C(=O)NC(C)(C)C(=O)N[C@@H](CCCNC(=N)N)C(=O)N[C@@H](C)C(=O)N[C@@H](C)C(=O)N[C@@H](CCC(N)=O)C(=O)N[C@@H](CC(=O)O)C(=O)N[C@@H](Cc1ccccc1)C(=O)N[C@H](C(=O)N[C@@H](CCC(N)=O)C(=O)N[C@@H](Cc1c[nH]c2ccccc12)C(=O)N[C@@H](CC(C)C)C(=O)N[C@@H](CC(C)C)C(=O)NC(C)(C)C(=O)NCC(=O)N[C@@H](CCCNC(=N)N)C(=O)NCC(N)=O)C(C)C)C(=O)O)C(=O)O) [peptide of SEQ ID NO: 29] | 0.007 | 1.65 | 0.014
6 | H[dS]QGTFTSDK([γGlu-Palmitoyl])SKYLDERAAQDFVQWLLDGRK-NH2 (N-terminus assumed; SMILES CCCCCCCCCCCCCCCC(=O)N[C@@H](CCC(=O)NCCCC[C@H](NC(=O)[C@H](CC(=O)O)NC(=O)[C@H](CO)NC(=O)[C@@H](NC(=O)[C@H](Cc1ccccc1)NC(=O)[C@@H](NC(=O)CNC(=O)[C@H](CCC(N)=O)NC(=O)[C@@H](CO)NC(=O)[C@@H](N)Cc1c[nH]cn1)[C@@H](C)O)[C@@H](C)O)C(=O)N[C@@H](CO)C(=O)N[C@@H](CCCCN)C(=O)N[C@@H](Cc1ccc(O)cc1)C(=O)N[C@@H](CC(C)C)C(=O)N[C@@H](CC(=O)O)C(=O)N[C@@H](CCC(=O)O)C(=O)N[C@@H](CCCNC(=N)N)C(=O)N[C@@H](C)C(=O)N[C@@H](C)C(=O)N[C@@H](CCC(N)=O)C(=O)N[C@@H](CC(=O)O)C(=O)N[C@@H](Cc1ccccc1)C(=O)N[C@H](C(=O)N[C@@H](CCC(N)=O)C(=O)N[C@@H](Cc1c[nH]c2ccccc12)C(=O)N[C@@H](CC(C)C)C(=O)N[C@@H](CC(C)C)C(=O)N[C@@H](CC(=O)O)C(=O)NCC(=O)N[C@@H](CCCNC(=N)N)C(=O)N[C@@H](CCCCN)C(N)=O)C(C)C)C(=O)O) [peptide of SEQ ID NO: 28] | 0.003 | 2.84 | 0.015
7 | H[Aib]QGTFTSDK([γGlu-γGlu-Palmitoyl])SKYLD[Aib]RAAQDFVQWLMKGRG-NH2 (N-terminus assumed; SMILES CCCCCCCCCCCCCCCC(=O)N[C@@H](CCC(=O)N[C@@H](CCC(=O)NCCCC[C@H](NC(=O)[C@H](CC(=O)O)NC(=O)[C@H](CO)NC(=O)[C@@H](NC(=O)[C@H](Cc1ccccc1)NC(=O)[C@@H](NC(=O)CNC(=O)[C@H](CCC(N)=O)NC(=O)C(C)(C)NC(=O)[C@@H](N)Cc1c[nH]cn1)[C@@H](C)O)[C@@H](C)O)C(=O)N[C@@H](CO)C(=O)N[C@@H](CCCCN)C(=O)N[C@@H](Cc1ccc(O)cc1)C(=O)N[C@@H](CC(C)C)C(=O)N[C@@H](CC(=O)O)C(=O)NC(C)(C)C(=O)N[C@@H](CCCNC(=N)N)C(=O)N[C@@H](C)C(=O)N[C@@H](C)C(=O)N[C@@H](CCC(N)=O)C(=O)N[C@@H](CC(=O)O)C(=O)N[C@@H](Cc1ccccc1)C(=O)N[C@H](C(=O)N[C@@H](CCC(N)=O)C(=O)N[C@@H](Cc1c[nH]c2ccccc12)C(=O)N[C@@H](CC(C)C)C(=O)N[C@@H](CCSC)C(=O)N[C@@H](CCCCN)C(=O)NCC(=O)N[C@@H](CCCNC(=N)N)C(=O)NCC(N)=O)C(C)C)C(=O)O)C(=O)O) [peptide of SEQ ID NO: 23] | 0.004 | 1.58 | 0.023
8 | H[Aib]QGTFTSDK([γGlu-γGlu-Palmitoyl])SKYLD[Aib]RAAQDFVQWLK[Aib]GRG-NH2 (N-terminus assumed; SMILES CCCCCCCCCCCCCCCC(=O)N[C@@H](CCC(=O)N[C@@H](CCC(=O)NCCCC[C@H](NC(=O)[C@H](CC(=O)O)NC(=O)[C@H](CO)NC(=O)[C@@H](NC(=O)[C@H](Cc1ccccc1)NC(=O)[C@@H](NC(=O)CNC(=O)[C@H](CCC(N)=O)NC(=O)C(C)(C)NC(=O)[C@@H](N)Cc1c[nH]cn1)[C@@H](C)O)[C@@H](C)O)C(=O)N[C@@H](CO)C(=O)N[C@@H](CCCCN)C(=O)N[C@@H](Cc1ccc(O)cc1)C(=O)N[C@@H](CC(C)C)C(=O)N[C@@H](CC(=O)O)C(=O)NC(C)(C)C(=O)N[C@@H](CCCNC(=N)N)C(=O)N[C@@H](C)C(=O)N[C@@H](C)C(=O)N[C@@H](CCC(N)=O)C(=O)N[C@@H](CC(=O)O)C(=O)N[C@@H](Cc1ccccc1)C(=O)N[C@H](C(=O)N[C@@H](CCC(N)=O)C(=O)N[C@@H](Cc1c[nH]c2ccccc12)C(=O)N[C@@H](CC(C)C)C(=O)N[C@@H](CCCCN)C(=O)NC(C)(C)C(=O)NCC(=O)N[C@@H](CCCNC(=N)N)C(=O)NCC(N)=O)C(C)C)C(=O)O)C(=O)O) [peptide of SEQ ID NO: 26] | 0.004 | 3.29 | 0.106
